Data published in patent US20210015937A1 (CRESCENDO BIOLOGICS, published 2021).
Where “and” joins values, the source holds several entries; their conditions need not be identical. Equal values may be shown once.

Experiments:
CD4 = biological target: T1, CD4 (UniProt P01730 26-390); test: BLI (Octet)
T1 construct: also called CD4 (R&D Biotechne 514-CD)

CD28 = CD28 (Homo sapiens (Human), UniProt P10747 19-152); test: BLI (Octet)
CTLA4 = CTLA4 (Homo sapiens (Human), UniProt P16410 36-161); test: BLI (Octet)
CTLA4, sequence (P16410 36-161 limits assumed): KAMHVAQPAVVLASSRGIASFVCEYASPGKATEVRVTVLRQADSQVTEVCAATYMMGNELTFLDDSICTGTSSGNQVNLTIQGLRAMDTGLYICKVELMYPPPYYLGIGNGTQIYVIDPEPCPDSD

[1] = biological target: T2, human PD-1 expressed on cells (human, UniProt Q15116 25-288); test: cell-based or functional assay
T2 sequence (Q15116 25-288 limits assumed): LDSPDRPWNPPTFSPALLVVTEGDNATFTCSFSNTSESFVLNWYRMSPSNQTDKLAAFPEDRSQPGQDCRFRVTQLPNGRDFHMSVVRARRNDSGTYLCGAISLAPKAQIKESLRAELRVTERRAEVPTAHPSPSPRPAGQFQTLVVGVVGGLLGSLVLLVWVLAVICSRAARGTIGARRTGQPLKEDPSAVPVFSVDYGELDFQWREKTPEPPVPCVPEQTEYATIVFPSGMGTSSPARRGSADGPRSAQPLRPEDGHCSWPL

[2] = biological target: human LAG-3 and human PD-1 co-expressed on the surface of cells (DiscoverX cell line) (human); test: cell-based or functional assay
human LAG-3 and human PD-1 co-expressed on the surface of cells (DiscoverX cell line) (human), sequence (Q15116 25-288): as the sequence (Q15116 25-288 limits assumed) above

[3] = biological target: T2, human PD-1 expressed on cells; test: cell-based or functional assay; remark: listed apart in the source
[4] = biological target: T3, human LAG-3 expressed on cells (human, UniProt P18627 23-525); test: cell-based or functional assay
T3 sequence: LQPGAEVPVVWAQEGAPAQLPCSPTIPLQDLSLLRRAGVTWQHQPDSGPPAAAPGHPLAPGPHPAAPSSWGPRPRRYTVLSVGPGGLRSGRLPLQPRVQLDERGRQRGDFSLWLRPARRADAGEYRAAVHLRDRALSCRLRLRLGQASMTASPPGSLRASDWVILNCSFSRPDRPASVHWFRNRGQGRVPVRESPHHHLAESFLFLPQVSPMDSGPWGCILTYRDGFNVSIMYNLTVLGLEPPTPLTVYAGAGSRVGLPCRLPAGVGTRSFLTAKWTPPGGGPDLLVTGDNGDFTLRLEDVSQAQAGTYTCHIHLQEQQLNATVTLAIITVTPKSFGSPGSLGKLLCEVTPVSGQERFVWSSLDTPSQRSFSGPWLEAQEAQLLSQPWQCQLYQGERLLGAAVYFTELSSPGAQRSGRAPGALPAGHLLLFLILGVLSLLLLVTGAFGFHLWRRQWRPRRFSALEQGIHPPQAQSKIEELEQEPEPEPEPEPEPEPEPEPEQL

[5] = biological target: T4, recombinant human PD-1 Fc chimera (human, UniProt Q15116 25-167); test: BLI (Octet); PD1 antigen captured on Protein G sensors
T4 construct: Bought Fc chimera; also called human PD-1 (R&D systems cat no. 1086-PD); PD1 antigen
T4 sequence (Q15116 25-167 limits assumed, change not shown): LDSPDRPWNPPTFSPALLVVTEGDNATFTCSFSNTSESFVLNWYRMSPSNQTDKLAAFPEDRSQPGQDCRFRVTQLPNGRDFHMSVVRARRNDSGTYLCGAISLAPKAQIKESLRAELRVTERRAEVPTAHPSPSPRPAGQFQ

Cynomolgus PD1 = Cynomolgus PD1 (cynomolgus, UniProt B0LAJ3 25-170); test: as above
Cynomolgus PD1, sequence (B0LAJ3 entry or part of it limits assumed): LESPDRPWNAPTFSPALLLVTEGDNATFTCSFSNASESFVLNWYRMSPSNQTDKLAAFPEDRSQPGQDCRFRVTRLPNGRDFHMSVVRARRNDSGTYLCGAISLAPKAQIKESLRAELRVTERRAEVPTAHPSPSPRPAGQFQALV

[6] = biological target: T5, recombinant human LAG-3-Fc (human, UniProt P18627 23-450); test: BLI (Octet); LAG3 antigen amine-coupled to ARG2 sensors
T5 construct: also called human LAG-3 (R&D Systems cat no. 2319-L3); LAG3 antigen
T5 sequence: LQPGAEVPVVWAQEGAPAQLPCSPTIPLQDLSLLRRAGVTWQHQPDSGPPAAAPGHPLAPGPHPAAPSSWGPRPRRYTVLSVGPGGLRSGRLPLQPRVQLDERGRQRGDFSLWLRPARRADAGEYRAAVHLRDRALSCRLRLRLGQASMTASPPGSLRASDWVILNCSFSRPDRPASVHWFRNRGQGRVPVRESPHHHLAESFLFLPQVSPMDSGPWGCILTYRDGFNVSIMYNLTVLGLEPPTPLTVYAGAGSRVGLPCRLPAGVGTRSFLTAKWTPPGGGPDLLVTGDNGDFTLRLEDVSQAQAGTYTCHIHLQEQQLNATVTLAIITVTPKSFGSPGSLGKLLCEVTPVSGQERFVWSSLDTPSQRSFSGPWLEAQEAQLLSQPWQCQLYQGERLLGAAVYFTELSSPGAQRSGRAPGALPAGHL

[7] = biological target: T6, Rhesus monkey LAG-3 (used as cynomolgus LAG-3) (Rhesus monkey (called cynomolgus in the …)); test: as above
T6 construct: extracellular domain

[8] = biological target: T4, recombinant human PD-1 Fc chimera; test: switchSENSE; LAG3 and PD1 both on the surface, PD1 channel (avidity)
Protocol: (§1) The antigens were covalently attached to the biosensor surface using amine-coupling method, each antigen was linked to a different nanolever, with red or green fluorescent tag. Binding of a bispecific construct was measured to individual antigens alone or where both antigens were present on the surface simultaneously.

[9] = biological target: T5, recombinant human LAG-3-Fc; test: switchSENSE; LAG3 and PD1 both on the surface, LAG3 channel (avidity)
Protocol: as §1

[10] = biological target: T4, recombinant human PD-1 Fc chimera; test: switchSENSE (Dynamic Biosensors); PD1 alone on the surface, PD1 channel
Protocol: as §1

[11] = biological target: T5, recombinant human LAG-3-Fc; test: switchSENSE (Dynamic Biosensors); LAG3 alone on the surface, LAG3 channel
Protocol: as §1

[12] = biological target: T5, recombinant human LAG-3-Fc; test: switchSENSE; LAG3 and PD1 both on the surface, LAG3 channel (avidity); LAG3 and PD1 as ligand antigens, LAG3 detection channel
Protocol: as §1

B1: VH1.2-6GS-VH1.2-6GS-VH2.92-His6 (bispecific antibody)
chain: EVQLVESGGGVVRPGGSLRLSCAASGFTFDDYGMSWVRQAPGKGLEWVSGIHWNGGSTGYADSVKGRFTISRDNAKNSLYLQMNSLRAEDTALYYCARIPREDCSSASCYTDAIDFWGQGTMVTVSSGGGGSGGGGSGGGGSGGGGSGGGGSGGGGSEVQLVESGGGVVRPGGSLRLSCAASGFTFDDYGMSWVRQAPGKGLEWVSGIHWNGGSTGYADSVKGRFTISRDNAKNSLYLQMNSLRAEDTALYYCARIPREDCSSASCYTDAIDFWGQGTMVTVSSGGGGSGGGGSGGGGSGGGGSGGGGSGGGGSEVQLVESGGGLVKPGGSLRLSCAASGFTFSDESMTWMRQAPGKGLEWVSYISSGGGVKFYADSVKGRFTISRDNAKNSLYLQMNSLRAEDTAVYYCAREAPLRLGESPHDAFDISGQGTMVTVSSAAAHHHHHH
notes: 259 is the same construct without the tag; also called 1.2-6GS-1.2-6GS-2.92; the bispecific
B1: no binding (CD4); no binding (CD28); no binding (CTLA4). The “potency in the PD-1:PD-L1 NFAT-luciferase reporter assay, fold lower than monoclonal antibodies” value [1] was over 30 fold, the “EC50 (M) (n = 2), enzyme fragment complementation on LAG-3/PD-1 cells” value [2] was 5.5e-11 M and 7.6e-11 M and the “EC50 (M), NFAT-Luciferase Reporter Gene assay (PD-1:PD-L1)” value [3] was 4.6e-08 M. For the same binder, the “EC50 (M), NFAT-Luciferase Reporter Gene assay (LAG-3:MHCII)” value [4] was 5.9e-09 M, the Kd [5] was 2.94 nM and the koff [5] was 0.000665 s⁻¹. For the same binder, the kon [5] was 226000 M⁻¹ s⁻¹, the Kd (Cynomolgus PD1) was 4.36 nM and the koff (Cynomolgus PD1) was 0.000685 s⁻¹. The kon (Cynomolgus PD1) was 157000 M⁻¹ s⁻¹, the Kd [6] was 1.42 nM and the koff [6] was 0.000206 s⁻¹. It also gave a kon [6] of 145000 M⁻¹ s⁻¹, a Kd [7] of 1.32 nM and a koff [7] of 0.000184 s⁻¹. It also gave a kon [7] of 140000 M⁻¹ s⁻¹, a Kd [8] of 0.041 nM and a koff [8] of 8.67e-05 s⁻¹. The kon [8] was 2.12e+06 M⁻¹ s⁻¹, the Kd [9] was 0.0207 nM and the Kd [10] was 4.4 nM. The koff [10] was 0.000488 s⁻¹, the kon [10] was 110000 M⁻¹ s⁻¹ and the Kd [11] was 1.4 nM. The koff [11] was 0.000674 s⁻¹, the kon [11] was 483000 M⁻¹ s⁻¹ and the koff [12] was 7.51e-05 s⁻¹. For the same binder, the kon [12] was 3.62e+06 M⁻¹ s⁻¹.
